Laboratory results taken from publication PMC11090974, “Structural basis for the distinct roles of non-conserved Pro116 and conserved Tyr124 of BCH domain of yeast p50RhoGAP” (Cellular and Molecular Life Sciences: CMLS, 2024).
Substitutions are numbered along the chain they refer to. Names and notes keep the numbering of the source. Values joined by “and” are separate entries in the source; they are usually repeats but may differ in a detail not shown here. Identical values can stand only once.

B1: BCH domain of S. pombe p50RhoGAP, wild type (YBCH 1-156 a.a) (domain or fragment, UniProt Q9P3B1 1-156, looked up)
chain: MEHDLERLCFIGGYDNDNDKVIVVVTKNLELFKKYDDINLIKEAYNHVHKLIQKDERYTAVFFAHDSTVFSYLGLSLKAYYGMDYYLHKNVKAVYVIHTDWMSKVAIRTLLSIASPKFTRKFRYLNSISDLNKYIPLSHLKLPPIVYEFDRNVEPA
notes: S. pombe homolog of p50RhoGAP (SPAC1565.02c protein), BCH domain, residues 1-156; The methods tell cloning, expression and purification only for the P116A mutant (parent construct (His)6-SlyD YBCH in pET32a); also called WT YBCH; yeast BCH
B2: P116A mutant of the BCH domain of S. pombe p50RhoGAP (YBCH 1-156 a.a) (domain or fragment, UniProt Q9P3B1 1-156, looked up)
chain: B1 chain with P116A
notes: S. pombe homolog of p50RhoGAP (SPAC1565.02c protein), BCH domain, residues 1-156, Pro116 to Ala; SlyD tag cleaved with PreScission protease; also called P116A-YBCH; YBCH P116A; source: E. coli BL21 (DE3), purified (Ni-NTA, cation exchange, gel filtration)

Molecular target: the molecule itself
Assay: AUC; sedimentation velocity, 2.4 mg/ml, absorbance at 280 nm, 40,000 rpm, 24 °C, analysed with Sedfit

Protein | stoichiometry N
B1 | 2
B2 | 2 and 4
